# Source: patent publication US20250026823A1
# Experiments:
# [1] = molecular target: CLEC12A expressed on cells (CLEC12A-transfected CHO cells; HL60 cells) (UniProt Q5QGZ9); test: flow cytometry on CLEC12A-transfected CHO cells
# [2] = molecular target: CLEC12A expressed on cells (CLEC12A-transfected CHO cells; HL60 cells) (UniProt Q5QGZ9); test: flow cytometry on HL60 cells
# [3] = molecular target: extracellular domain of CLEC12A (amino acids 75 to 275) coupled to a His-tag (Sino Biological, cat.no. 11896-H07H) (UniProt Q5QGZ9); test: ELISA, extracellular domain of CLEC12A coated at 2 µg/ml
# extracellular domain of CLEC12A (amino acids 75 to 275) coupled to a His-tag (Sino Biological, cat.no. 11896-H07H), sequence (Q5QGZ9 65-265 limits assumed): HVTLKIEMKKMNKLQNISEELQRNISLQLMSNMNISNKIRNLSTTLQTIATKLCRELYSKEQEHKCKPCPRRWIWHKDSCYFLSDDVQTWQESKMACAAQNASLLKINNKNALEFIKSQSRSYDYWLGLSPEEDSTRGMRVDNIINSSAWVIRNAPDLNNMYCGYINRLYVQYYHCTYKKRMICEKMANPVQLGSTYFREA
# CLEC12A expressed on cells (CLEC12A-transfected CHO cells; HL60 cells), sequence (Q5QGZ9 whole entry, the tested form may be a part): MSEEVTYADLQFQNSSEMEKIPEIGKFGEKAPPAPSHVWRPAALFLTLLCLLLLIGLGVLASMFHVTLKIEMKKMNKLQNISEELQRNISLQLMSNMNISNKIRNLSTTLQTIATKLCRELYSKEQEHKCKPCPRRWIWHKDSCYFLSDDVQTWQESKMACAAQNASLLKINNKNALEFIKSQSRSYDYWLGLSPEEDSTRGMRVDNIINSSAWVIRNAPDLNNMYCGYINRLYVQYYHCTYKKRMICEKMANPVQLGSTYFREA
substance,measurement,setting,value
irrelevant IgG1 isotype control mAb (antibody),mean fluorescent intensity,[1],289
same,mean fluorescent intensity,[2],116
same,optical density,[3],0.127
